Here are results for 22 sequences from a protein production outcome set (Wang et al. 2014).
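Note: failed if final PepcDB status was selected cloned or expressed and not failed if soluble or beyond.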

The series is described as follows: label from the status in PepcDB records.
For “MITFEKVTVENENVVKEMFRSHSLSEKQVQYCVKVDDTYIGVIDYRVQGETAILSQLIIHFDYQSYGYGTNTYFTFEMMMKERNVKEIKVLQTELTEPVKSFIESFGFNVEDG”, the protein production entry is “failed”.

As to “MEAEVWEAEGYNLVLDSDLYDADGYDVPDPGLLTEKNELTFTEPSQVLPFLTSSQQWQSLTPRARARRLWLLLRTSLHEVVEKEKRAELRAARLTHGLEPLRRLEVAAGLRSVAQDPVGGRFVVLDGAGRLHLHKEDGWAQETLLAPVRLTGLVTVLGPLGAVGRFVGWGPAGLAILRPNLSLLWLSEQGVGRAPGWAPTCCLPVPDLRLLLVAEMNSSLALWQFRSGGRRLVLRGSALHPPPSPTGRLMRLAVAPVPPHHVLRCFAAYGSAVLTFDLHAWTLVDVRRDLHKTTISDLAYCEEVEAMVTASRDSTVKVWEADWQIRMVFVGHTGPVTAMTVLPNTTLVLSASQDGTLRTWDLQAAAQVGEVALGFWGQDKLSRRVGRLLAPVRPGWPVLSLCASSMQLWRVRELYSPLAQLPAKVLHVQVAPALPAPAHQSLPTRLVCACADGSVYLLSAATGRIVSSLLLEPEDCAAAVAYCLPREALWLLTRAGHLVRANAARCPMSVLHRVCPPPPPAPQPCCLHLYSHLTDLGGAFSSWEIVRQHWGELRCSSVACAWKNKNRYLPVVGHTDGTLSVLEWLSSKTVFQTEAHSPGPVVAIASTWNSIVSSGGDLTVKMWRVFPYAEESLSLLRTFSCCYPAVALCALGRRVTAGFEDPDSATYGLVQFGLGDSPRLDHRPQDDPTDHITGLCCCPTLKLYACSSLDCTVRIWTAENRLLRLLQLNGAPQALAFCSNSGDLVLALGSRLCLVSHRLYLPTSYLVKKMCRKAPDVVDDPPLPLMSQESLTSAQLQRLTNLHGAASLRSHAGLLSPPGGPPFPLWVGAWRCGALWS”, the protein production entry is “failed”.

For “MAQKMTGALVFDERTDRYDIRFDLNSYYGGLHCGECFDVFVRGKWKPTRIEYGDNWYLVGIRAEDLNGLRVRILEHHHHHH”, the protein production result is “not failed”.

For “MNDDLSWMLDSALEIPGALHAVLISADGLLMARTQDFDKDDADRVAAAMSGVQSLSRTLAFFCEDPSQTWRQTLVEFDGGWVFLISAGEGAYLGVSASPEVDMADITFRMQQLVAQLGKRLTTPPRENLGARS”, the protein production result is on record as “failed”.

For the sequence “KRITRPGNTDDPSGGNKVLLLSIQNPLYPITVDVLYTVCNPVGKVQRIVIFKRNGIQAMVEFESVLCAQKAKAALNGADIYAGCCTLKIEYARPTRLNVIRNDNDSWDYTKPYLGRR”, the protein production result is “not failed”.

Take “MDRPETIAVKCEPMTVDSPSRPLKLVVLADLNFNPPETDDLDSSIPIPTPPPITRLSNEESHQEGGILTCKEVEPGEVEAKKISKVGKCRSRSKIESSSDCGVDADGDLANQGVPASREEKISNLKMGLIHVARKMPKNAHAHFILGLMFQRLGQSQKAIPEYEKAEEILLGCEPEIARPELLLLVQIHHGQCLLLDGFGDTDSVKELEGEELEEILSKLKDSIKLDVRQAAVWNTLGLMLLKAGCLMSAISVLSSLLALVPDNYDCLANLGVAYLQSGDMELSAKCFQDLVLKDHNHPAALINYAAELLCKHSSTVAGAGANGGADASEDQKAPMNVAKECLLAALRSDPKSAHAWVNLANSYYMMGDHRSSSKCLEKAAKLDPNCMATRFAVAVQRIKDAERSQDASDQLSWAGNEMASVIREGESVPIDPPIAWAGLAMAHKAQHEIAAAFVADRNELTEMEERAVYSLKQAVTEDPEDAVRWHQLGLHSLCSQQYKLSQKYLKAAVGRSRECSYAWSNLGISLQLSDEHSEAEEVYKRALTVSKEDQAHAILSNLGNLYRQKKQYEVSKAMFSKALELKPGYAPAYNNLGLVFVAERRWEEAKSCFEKSLEADSLLDAAQSNLLKATTMSRLCTCFSSSTVVRDS”: the protein production entry is recorded as “failed”.

“MPLCLRNAQQDDTQRLSQIARQTFALACPPDTPATEIEAFIQENLLPEHFSALLEAPGKQLRVLLDDNRVIGYSLVNLHPQDLGVAGADGIAELTRCYLDAAHHGSGAAQFLLAQTLAQQPGPLRLTVNEHNARAIRFYQRNGFVRVGETLFPCGADLHRDWVMLRR”: the protein production entry is “failed”.

On to “MNSFWTFLQLIFVILQVTSLALYALLPAPWSDTVLVAMILFSLIIGIVIWWWSRRNALTAPFRQPFLSSDSLQLFEQVFNDLPTRVYWRDPELKLLGGNRAFANDFGIDPESLAGKTDAEIDSLASNDVLLERDRKTFSQQAPSVNAEIELKVSGKSQWVEHSSVPLYDDDHNIIGILGSYYDISGIKSVAEEMEKAKETAERANQSKGEFLANMSHEIRTPINAIVGMANLCLKTELTQKQKRYIKVIDSSSQALLGVINDILDFSKIDAGKLTVERIPFDLQDVLTSLADMFAYRAYDKDLEFIINLPANIPTRLIGDPLRLNQVLVNLISNAIKFTEDGEINVAVNLLDSSRDNVLLRISVTDTGIGMDEEQRANLFKAFTQADTSTTRKYGGTGLGLAISRRLILLMGGDIGVTSAAGQGSTFYIEVELPLQTEQDNSHHQYLLQKLKGVRILAIDDNLSTREMLYEMLRSYQVDVKVCRTAEQALQVFQLSVEDNNPYQLVLVDWRLPGMDGLEFCQKITERYAEDIRPKMTLATGYYAEELSEKAKQAGVNDIISKPFTASTLGRSLTSTLFQRELSDADDADSGDGIPESILRAPILVVEDNEINQQVAREILSSHKFKVDIVENGQLAVEAVHNKNYSLVLMDIQMPVMDGLKAAQTIRADFNYQQLPILAMTANAMSGDEERSLAAGMQGHIAKPIDEQQLIKAIIKWAVPGDYTNNQQPEVPPESKQDEVNKPPVRIPQVKGIEFETALKRLQYNVELYLKLVEQLYETYQGSATKVSDFITRGQHESARRYFHSLKGAAANLGFTQLQSKAADLEQFMAEGNIDKVADQITELEKRLRYAHQAAVDLEAIQQHQS”, for which the protein production result is “failed”.

For the sequence “MLLKQRINANVLVQDGDEPSEDPNELIKQVFALTQESNQLICRIHSTNAQAKLEDGKILLSLLSLRDSYAEQHKILIDAIANTHREPDRYSSREIKWKKVIPVSSLQKQADDISAKLRDLNVKIQAANWQIDLINLEHHHHHH”, the protein production entry is “failed”.

As to “MIKKIFALPVIEQISPVLSRRKLDELDLIVVDHPQVKASFALQGAHLLSWKPAGEEEVLWLSNNTPFKNGVAIRGGVPVCWPWFGPAAQQGLPAHGFARNLPWTLKSHHEDADGVALTFELTQSEETKKFWPHDFTLLAHFRVGKTCEIDLESHGEFETTSALHTYFNVGDIAKVSVSGLGDRFIDKVNDAKENVLTDGIQTFPDRTDRVYLNPQDCSVINDEALNRIIAVGHQHHLNVVGWNPGPALSISMGDMPDDGYKTFVCVETAYASETQKVTKEKPAHLAQSIRVAKR”, the protein production entry is reported as “not failed”.

On to “MEDQGVLAGFFALSFAFILVILIWAIISYLLTAFALYSMAKNDGATDGVLAFIPFLNSKTWGDLAKDKLPDFLKEEAGWKVFGIYVACFIFNFVPIISLLATAVSIVLSIYLIYAILDRYGTNSILFTIIHVITFSVFLPIHLFIIRNEPVRYKE”, for which the protein production result was “failed”.

Regarding “MAKDKRISLLKVTSMVIIINLLSKITGFIRDFITASKFGTSVSADAFSMSSVVPNIIFAILGAAIVNTFVPIFNDVIVNKGEKRAFKFSNNVITVLTLLSIILTLLGEIFCPQFVKLIAPDFHGYKYLLTIKLTRIFLLIIIVNTWVFLSTAILQAKEHFLIPSLIGIPYNLLVIVYLLFFSSKYGVLGLTEVIVFAMFVQFLIHVPSLARMKYRYKPEFNISDGYLKSMVVLLIPILLGTSVQQITSLFNGRFSSSLETGSVAALSYASRLNSLVMDIFVISIVTVIYPKMTKLSSENKIGELIESFNISIRSITIILFPIITIILIESVPIVKILFQRDAFGNKSTLMTSTALFYYIIGIIAAGLREVLCRMFYALKDTRTPMINSAITVLVNVVLAYYLKDVLRLGGIALASSIAAYVSSILLFIKLNSKLKNINYRKTIGVTIKVIFASIGMGIFLKVLYQIVGQALLKKAIIIEIIGFGGITLIALLIYMLILYLMKVEEINMVSAFLYKKIKRG”, the protein production result is reported as “failed”.

Take “DDLEVGKNIDESAYSGIYENNAYLRDGKSNLVSKVVELHGETYATTVKMGLSKTPNTATSAKVKIDAAYLETYNKAHNTDFALYPQDLVTFANEGILTVNANTKSAEVEMTIRAGEGLQEDKTYAIPVAISDQSSDITIKDEDAKHCIYLVKDMRNAGDAYKGEGVMQGYLFFEVNDVNPLNTLSFQLENGKLLWDVVVLFAANINYDAEAGRPRVQCNPNVQYLLDNNETLLQPLRRRGVKVLLGLLGNHDITGLAQLSEQGAKDFAREVAQYCKAYNLDGVNYDDEYSNSPDLSNPSLTNPSTAAAARLCYETKQAMPDKLVTVFDWGQMYGVATVDGVDAKEWIDIVVANYGSAAYPIGQMTKKQCSGISMEFNLGGGGSLSASKAQSMIDGGYGWFMGFAPSPAKYGSVFSRLQGGGEVLYGSNVAAPTIFYKKNDPTPYKYPDDL”: the protein production result is on record as “not failed”.

In the case of “ALQAGRLGSTVFVANLDYKVGWKKLKEVFSMAGVVVRADILEDKDGKSRGIGTVTFEQSIEAVQAISMFNGQLLFDRPMHVKMDERALPKGDFFPPERPQQ”, the protein production entry is “not failed”.

With “MTGSCLCQGIRYEISGHGLGDIIECHCQRCRKANGTAYATNTPVHVDDFKIVQGEHLLKKYQSTPTTQRCFCSECGSPIMSIKTDTPEYYRLRIGTLDTKIEQKPSMHIFAAHKAEWDTITDDLPQYAERP”, the protein production entry is listed as “failed”.

Take “MSYFDQDDKEVLAPNSDVIAATTTTATTATHGIEVATEFKPVEHPVEPLDNDLPIQCPLPEPSILNDGRIWKERVSASMRRKGDLQIVKDEAASESDGSAPKPPRPPQPNRSILPSLSAPEHNLLNLLEECNAMPPVTSKNG”: the protein production entry was “failed”.

On to “MSQPEPRAGENRALRAFAPDAGLFLLKPWIGGLALLADWGLIAAAFACAALWPHPVIYLLAALLIARSQLALAVLMHESAHGLLLRGQKANDRLGQWLAAGPLFLSLCTYRAGHLKHHLHPMEHDDPVVAVFGLGDYPLPRGKLALRLLADLCGVGYFISALRFARGDYRAIMPRVDKSPRQALAQVLSMLVSNGLLFGLLAWSGHPWLYLGLWLLPAITLLPLLGRVRAIMEHAGLPVAADQSRNARSIVRPSVQTFLFGPHAIHYHIEHHLYVRVPFYHLGGLHRQLATAQLLPEGNLYQGYGGVLRDVSDPDWRSSAR”, for which the protein production result is listed as “failed”.

As to “MRVLPLLLLIYPFAEIAALVALADRIGGLAVFLLVLLSSMLGLWMLRNQKLGALLTLGSVMRQGDKVSLYSLLWPLRYALAGLLFLLPGLLSDVAAVLLLLPLKGPDISLRATGAGPAAGPAGGSDIIEGEFSRVDETTPPGRRIQ”, the protein production entry is “failed”.

Consider “MELQLAIDLLNKEEAAKLAQKVEEYVDIVEIGTPIVINEGLPAVQHLNENINNAKVLADLKIMDAADYEVSQAVKYGADIVTILGVAEDASIKAAVEEAHKHGKALLVDMIAVQNLEQRAKELDEMGADYIAVHTGYDLQAEGKSPLDSLRTVKSVIKNSKVAVAGGIKPDTIKDIVAEDPDLVIVGGGIANADDPVEAAKQCRVAIEGK”, for which the protein production entry is “failed”.

For the sequence “MVLEVSDHQVLNDAEVAALLENFSSSYDYGENESDSCCTSPPCPQDFSLNFDRAFLPALYSLLFLLGLLGNGAVAAVLLSRRTALSSTDTFLLHLAVADTLLVLTLPLWAVDAAVQWVFGSGLCKVAGALFNINFYAGALLLACISFDRYLNIVHATQLYRRGPPARVTLTCLAVWGLCLLFALPDFIFLSAHHDERLNATHCQYNFPQVGRTALRVLQLVAGFLLPLLVMAYCYAHILAVLLVSRGQRRLRAMRLVVVVVVAFALCWTPYHLVVLVDILMDLGALARNCGRESRVDVAKSVTSGLGYMHCCLNPLLYAFVGVKFRERMWMLLLRLGCPNQRGLQRQPSSSRRDSSWSETSEASYSGL”, the protein production entry is “not failed”.

In the case of “MATDAPPPSKEEPPSQEEHRLPSAEEFSEVQQSAEFAELRRSFRSFAFPLTVAFVAWYLLYVLLSNYAGGFMGTKLFGNINVAFVFGIAQFVTTFLIAWWYSRHAAAKLDPKAEAIKTRMEGGA”, the protein production result is recorded as “failed”.

On to “MALSKRELDELKPWIEKTVKRVLGFSEPTVVTAALNCVGKGMDKKKAADHLKPFLDDSTLRFVDKLFEAVEEGRSSRHS”, for which the protein production result is reported as “not failed”.
